Measured values from patent US20240279357A1 (THERINI BIO, published 2024).

T1: human Fibrin (human fibrinogen clotted on the plate with thrombin and CaCl2) (human, UniProt P02671 36-629; P02675 45-491; P02679 27-437)
T1 construct: Made in the ELISA wells from the human fibrinogen by thrombin and CaCl2, 1 hour at 37 C, then dried
T1 sequence (looked up) 1: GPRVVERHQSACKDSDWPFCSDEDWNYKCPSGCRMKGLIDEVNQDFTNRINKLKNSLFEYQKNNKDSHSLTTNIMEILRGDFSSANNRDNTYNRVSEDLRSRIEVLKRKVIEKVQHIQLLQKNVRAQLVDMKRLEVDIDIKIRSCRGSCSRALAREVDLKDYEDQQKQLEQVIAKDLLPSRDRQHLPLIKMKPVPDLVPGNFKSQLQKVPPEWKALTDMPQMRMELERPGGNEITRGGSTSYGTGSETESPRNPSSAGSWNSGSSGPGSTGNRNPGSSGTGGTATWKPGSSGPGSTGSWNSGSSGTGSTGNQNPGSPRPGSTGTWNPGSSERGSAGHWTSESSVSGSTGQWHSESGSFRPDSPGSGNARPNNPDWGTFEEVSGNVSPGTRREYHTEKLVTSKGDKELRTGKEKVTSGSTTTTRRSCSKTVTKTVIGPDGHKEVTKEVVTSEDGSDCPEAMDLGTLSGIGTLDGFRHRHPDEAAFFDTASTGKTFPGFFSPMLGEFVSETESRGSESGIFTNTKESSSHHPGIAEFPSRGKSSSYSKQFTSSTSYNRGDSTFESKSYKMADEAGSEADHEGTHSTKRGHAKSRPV
T1 sequence (looked up) 2: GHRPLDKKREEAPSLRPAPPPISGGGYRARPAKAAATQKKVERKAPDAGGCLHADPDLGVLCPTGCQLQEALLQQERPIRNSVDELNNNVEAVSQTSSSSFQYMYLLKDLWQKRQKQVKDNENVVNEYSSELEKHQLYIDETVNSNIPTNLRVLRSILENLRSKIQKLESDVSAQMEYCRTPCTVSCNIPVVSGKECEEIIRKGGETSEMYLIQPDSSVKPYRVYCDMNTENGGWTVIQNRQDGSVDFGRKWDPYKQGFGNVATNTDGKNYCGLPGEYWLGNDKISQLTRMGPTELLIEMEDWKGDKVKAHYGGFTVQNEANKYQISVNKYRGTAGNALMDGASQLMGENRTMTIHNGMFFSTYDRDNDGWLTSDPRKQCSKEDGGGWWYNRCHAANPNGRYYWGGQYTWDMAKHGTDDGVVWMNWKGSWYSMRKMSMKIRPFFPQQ
T1 sequence (looked up) 3: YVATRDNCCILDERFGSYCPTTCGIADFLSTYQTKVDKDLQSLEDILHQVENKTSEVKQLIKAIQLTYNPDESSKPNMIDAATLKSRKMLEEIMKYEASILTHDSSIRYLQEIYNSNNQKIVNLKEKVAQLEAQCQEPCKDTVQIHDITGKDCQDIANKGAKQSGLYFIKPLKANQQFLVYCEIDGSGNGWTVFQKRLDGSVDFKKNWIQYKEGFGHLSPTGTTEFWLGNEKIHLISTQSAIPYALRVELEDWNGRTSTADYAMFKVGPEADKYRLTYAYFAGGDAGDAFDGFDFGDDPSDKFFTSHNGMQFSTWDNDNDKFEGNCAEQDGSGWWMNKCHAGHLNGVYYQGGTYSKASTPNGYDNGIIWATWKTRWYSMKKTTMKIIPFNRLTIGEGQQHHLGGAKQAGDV


Molecular target: T1, human Fibrin (human fibrinogen clotted …)
Assay: ELISA on human fibrin formed on the plate
Procedure: The humanized antibodies affinity for fibrinogen, fibrin and P2 peptide were assessed by Enzyme-linked immunosorbent assays (ELISA)s (FIGS. 7-16). ELISAs for fibrinogen binding were performed using plasminogen-depleted human Fibrinogen (EMD/Calbiochem). […] IgG1-depleted Fibrinogen (FGN) in 20 mM HEPES/Saline buffer was added to each well of half of a 96-well Nunc Maxisorp™ ELISA plate. The ELISAs for fibrin binding were prepared by adding 50 mL of 20 mM HEPES/Saline buffer containing 14 mM CaCl₂, and 2 units thrombin to each well of the second half of the Nunc Maxisorp™ ELISA plate. 50 mL of 20 mg fibrinogen in 20 mM HEPES/Saline buffer were then added to a total volume of 100 mL. Plates were placed in a 37° C. incubator for 1 hour to allow fibrinogen to clot into fibrin and subsequently placed overnight into a plate dryer at 37° C. overnight. The ELISAs for P2 peptide were prepared by addition of […] of 30 mM P2 peptide in 20 mM HEPES/Saline buffer to each well of a 96-well Nunc Maxisorp™ ELISA plate. Plates were transferred to the plate dryer and dried overnight at 37° C. All ELISAs were preformed using Nunc MaxiSorp 96-well ELISA plates. Blocking was performed using 100 mL 5% BSA in DPBS are incubated at RT for 1 hour. Plates were washed 5× in DPBS containing 0.05% Tween-20 (EL406 was used for the addition of wash buffer only). 50 mL of primary antibodies was diluted in 0.5% BSA in DPBS, and the primary antibodies were added to the plates and incubated for 2 hours at 37° C. Plates were washed 5× in DPBS/Tween. 100 mL secondary antibodies were diluted in 0.5% BSA in DPBS. The secondary antibodies were then added to the plates and incubated for 1 hour at RT. Afterwards, plates were washed 5× in DPBS/Tween. 100 mL of TMB/E substrate solution was added, and the reaction was stopped after 5 minutes with 1N HCl.

Binder | EC50 [nM]
humanized VH5/Vκ2 antibody (antibody, IgG1, V domains shown, IgG1; also called VH5/VK2; VH5Vk2) VH: QVQLVQSGAEVKKPGSSVKVSCKASGYTFTSYWIHWVRQAPGQGLEWIGLIDPSDSYTNYNQKFRGRVTITRDTSTSTAYMELSSLRSEDTAVYYCASSDPTGCWGQGTTVTVSS VL: DIVMTQAAFSNPVTPGTPASISCRSSKSLLHSSGITYLSWYLQKPGQSPQLLIYQMSNLASGVPDRFSSSGSGTDFTLKISRVEAEDVGVYYCAQNLELPLTFGQGTKLEIK | ~525
humanized VH6/Vκ2 antibody (antibody, IgG1, V domains shown, Expressed as IgG1; also called VH6/VK2; VH6Vk2) VH: QVQLVQSGAEVKKPGSSVKVSCKASGYTFTSYWIHWVRQAPGQGLEWIGLIDPSDSYTNYNQKFQGRVTITRDTSTSTAYMELSSLRSEDTAVYYCASSDPTGCWGQGTTVTVSS VL: DIVMTQAAFSNPVTPGTPASISCRSSKSLLHSSGITYLSWYLQKPGQSPQLLIYQMSNLASGVPDRFSSSGSGTDFTLKISRVEAEDVGVYYCAQNLELPLTFGQGTKLEIK | ~488

More lines, in order of falling EC50, values ahead:

EC50 [nM] | Binder
~762 | humanized VH4/Vκ2 antibody (antibody, IgG1, V domains shown, IgG1; also called VH4/VK2; VH4Vk2) VH: QVQLVQSGAEVKKPGSSVKVSCKASGYTFTSYWIHWVRQAPGQGLEWIGLIDPSDSYTNYNQKFRGRVTITVDTSTSTAYMELSSLRSEDTAVYYCASSDPTGCWGQGTTVTVSS VL: DIVMTQAAFSNPVTPGTPASISCRSSKSLLHSSGITYLSWYLQKPGQSPQLLIYQMSNLASGVPDRFSSSGSGTDFTLKISRVEAEDVGVYYCAQNLELPLTFGQGTKLEIK
~219 | humanized VH4/Vκ1 antibody (antibody, IgG1, V domains shown, Expressed as IgG1; also called VH4/VK1; VH4Vk1) VH: QVQLVQSGAEVKKPGSSVKVSCKASGYTFTSYWIHWVRQAPGQGLEWIGLIDPSDSYTNYNQKFRGRVTITVDTSTSTAYMELSSLRSEDTAVYYCASSDPTGCWGQGTTVTVSS VL: DIVMTQAAFSNPITPGTPASISCRSSKSLLHSSGITYLSWYLQKPGQSPQLLIYQMSNLASGVPDRFSSSGSGTDFTLRISRVEAEDVGVYYCAQNLELPLTFGQGTKLEIK
